Assay results: publication PMC4019675

Biological target: FtsZ-Alexa488 (Cys-FtsZ labeled with Alexa488-maleimide)
Test: TIRF microscopy, single particle tracking

Substance: FtsZ-Cy5 (Cys-FtsZ labeled with Cy5-maleimide) (natural protein)
- average lifetime of FtsZ monomers in the filament network: 7.16 s
